Laboratory results taken from patent CN110938146A (UNIV HUAZHONG AGRICULTURAL, dated 2020).

Molecular target: T1, TIM-3重组蛋白 (human, UniProt Q8TDQ0 22-200, limits assumed)
T1 construct: also called 重组TIM-3蛋白; 固定化TIM-3
T1 sequence (looked up): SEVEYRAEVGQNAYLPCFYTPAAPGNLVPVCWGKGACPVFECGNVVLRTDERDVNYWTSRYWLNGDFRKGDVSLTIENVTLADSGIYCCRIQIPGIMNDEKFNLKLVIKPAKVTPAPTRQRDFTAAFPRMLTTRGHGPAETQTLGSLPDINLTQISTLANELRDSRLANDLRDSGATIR
Assay: ELISA: TIM-3 coated at 5 ug/mL, biotinylated sdAb titrated 1:2 from 200 ug/mL, HRP-streptavidin, Prism fit

B1: TIM-3-CX153 (VHH)
VHH: QSMEESGGRLVKPDETLTLTCTVSGFSLSSYSMIWVRQAPGKGLEWIGIIGTTGNTYYASWAKGRFTISKTSTTVDLKMTSLTSEDTATYFCARYYADGVFDLWGQGTLVTVSS
notes: Expressed in E. coli BL21 from pET28 and purified on a His nickel column; also called TIM-3-CX153-HisFlag; TIM-3-CX153单抗
B1 showed a Kd of 278 nM.
